Results as given in patent US20250388702A1 (Dana-Farber, published 2025).

B1: KIR3DL3 mAb 574.2.2D8.6.9 (antibody, IgG2b, V domains shown)
VH: DVQLVESGGGLVQPGGSRKLSCAASGFTFSYFGMHWVRRAPEKGLEWVAFISSDSTTIYYTDTVKGRFTISRDNPKNTLFLQMTSLRSEDTAIYYCARFYDGAMDYWGQGTSVTVST
VL: DIVMTQSQKFMSTSVGDRVSITCKASQSVRTAVAWYQQKPGQSPKVLIYLASNRHTGVPDRFTGSGSGTDFTLTISNVQSEDLADYFCLQHWNYPLTFGAGTKLELK
notes: Mouse hybridoma antibody, IgG2b; also called AVS-3702
B2: KIR3DL3 mAb 574.2.2H1.11.6 (antibody, IgG2b, V domains shown)
VH: B1 VH
VL: B1 VL
notes: Mouse hybridoma antibody, IgG2b; only variable domains given; also called AVS-3704

biological target: T1, Human KIR3DL3 (human, UniProt Q8N743 26-410); experiment: cell-based or functional assay
T1 sequence (Q8N743 26-410 H321N limits assumed): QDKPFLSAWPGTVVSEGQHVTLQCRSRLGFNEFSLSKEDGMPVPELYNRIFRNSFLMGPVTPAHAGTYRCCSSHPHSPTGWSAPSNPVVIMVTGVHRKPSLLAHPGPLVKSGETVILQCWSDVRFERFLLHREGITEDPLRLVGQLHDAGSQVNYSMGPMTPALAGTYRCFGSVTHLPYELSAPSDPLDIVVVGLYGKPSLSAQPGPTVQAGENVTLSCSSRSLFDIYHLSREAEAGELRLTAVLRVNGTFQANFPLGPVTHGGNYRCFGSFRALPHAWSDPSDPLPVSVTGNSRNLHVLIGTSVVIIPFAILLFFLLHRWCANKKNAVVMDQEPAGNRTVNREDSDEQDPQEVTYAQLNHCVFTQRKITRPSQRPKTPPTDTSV

Row | Jurkat IL-2 Luciferase Activation, EC50 | Jurkat IL-2 Luciferase, Fold Activation | Binder
1 | 1.3 mg/L | 14.9 fold | B1
2 | 1.79 mg/L | 16.2 fold | B2

biological target: T2, KIR2DS1 (UniProt Q14954 22-304, limits assumed); experiment: HEK293 cell microarray
T2 construct: whole, on cells
Method: (§1) Replicate microarray slides expressing a complete KIR family cDNA panel were fixed and blocked with buffer containing PBS/0.5% BSA and incubated for 1 hour at room temperature with individual KIR3DL3 mAb hybridoma supernatants at 1:5, 1:25 and 1:250 dilutions in PBS/0.1% BSA. Cell arrays were washed with PBS and incubated for 1 hour at room temperature in PBS/0.1% BSA containing AF647-conjugated goat anti-mouse IgG (H+L) (Life Technologies, A21235). Slides were washed with PBS, dried, and imaged for ZsGreen1 and AF647 fluorescence.
as §1, with “In Table 4, replicate” for “Replicate”, “the” for “a complete”, “panel (as in FIG. 1A, FIG. 2B, and FIG. 2C)” for “panel”

T2 sequence (Q14954 22-304 limits assumed): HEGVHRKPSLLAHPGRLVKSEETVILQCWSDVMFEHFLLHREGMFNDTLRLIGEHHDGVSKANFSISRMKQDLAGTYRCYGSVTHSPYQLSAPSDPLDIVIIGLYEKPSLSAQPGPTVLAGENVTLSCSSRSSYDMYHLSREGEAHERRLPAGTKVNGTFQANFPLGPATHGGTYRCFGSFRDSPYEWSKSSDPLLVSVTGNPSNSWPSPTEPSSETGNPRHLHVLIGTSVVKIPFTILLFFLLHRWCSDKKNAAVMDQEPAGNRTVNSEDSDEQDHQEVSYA

Row | Binder | binding result
3 | B1 | no binding (tested: supernatant 1:5, 1:25, 1:250)
4 | B2 | no binding (tested: supernatant 1:5, 1:25, 1:250)

biological target: T3, KIR3DS1 (UniProt Q14943 22-382, limits assumed); experiment: HEK293 cell microarray
T3 construct: whole, on cells
Method: as §1
as §1, with “In Table 4, replicate” for “Replicate”, “the” for “a complete”, “panel (as in FIG. 1A, FIG. 2B, and FIG. 2C)” for “panel”

T3 sequence (Q14943 22-382 limits assumed): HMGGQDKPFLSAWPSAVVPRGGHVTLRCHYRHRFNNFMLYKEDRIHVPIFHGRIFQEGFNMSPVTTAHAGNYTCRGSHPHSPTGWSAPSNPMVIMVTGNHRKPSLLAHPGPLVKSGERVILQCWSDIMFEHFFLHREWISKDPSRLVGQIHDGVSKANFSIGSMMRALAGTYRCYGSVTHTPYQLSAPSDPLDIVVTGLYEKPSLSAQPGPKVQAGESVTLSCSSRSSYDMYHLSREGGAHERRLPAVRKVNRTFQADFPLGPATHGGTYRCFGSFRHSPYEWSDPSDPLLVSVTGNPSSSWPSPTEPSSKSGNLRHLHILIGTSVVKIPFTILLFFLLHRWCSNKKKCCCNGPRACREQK

Row | Binder | binding result
5 | B1 | no binding (tested: supernatant 1:5, 1:25, 1:250)
6 | B2 | no binding (tested: supernatant 1:5, 1:25, 1:250)

biological target: T4, KIR2DS2 (UniProt P43631 22-304, limits assumed); experiment: HEK293 cell microarray
T4 construct: whole, on cells
Method: as §1
as §1, with “In Table 4, replicate” for “Replicate”, “the” for “a complete”, “panel (as in FIG. 1A, FIG. 2B, and FIG. 2C)” for “panel”

T4 sequence (P43631 22-304 limits assumed): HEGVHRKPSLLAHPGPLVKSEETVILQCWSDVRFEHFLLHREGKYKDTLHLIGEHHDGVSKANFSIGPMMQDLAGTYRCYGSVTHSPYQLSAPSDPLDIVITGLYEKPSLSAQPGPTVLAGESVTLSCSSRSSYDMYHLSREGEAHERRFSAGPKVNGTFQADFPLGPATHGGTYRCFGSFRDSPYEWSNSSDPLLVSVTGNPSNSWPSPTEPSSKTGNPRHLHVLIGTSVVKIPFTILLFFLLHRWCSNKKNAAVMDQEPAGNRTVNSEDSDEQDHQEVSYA

Row | Binder | binding result
7 | B1 | no binding (tested: supernatant 1:5, 1:25, 1:250)
8 | B2 | no binding (tested: supernatant 1:5, 1:25, 1:250)

biological target: T5, KIR2DL1 (UniProt P43626 22-348, limits assumed); experiment: HEK293 cell microarray
T5 construct: whole, on cells
Method: as §1
as §1, with “In Table 4, replicate” for “Replicate”, “the” for “a complete”, “panel (as in FIG. 1A, FIG. 2B, and FIG. 2C)” for “panel”

T5 sequence (P43626 22-348 limits assumed): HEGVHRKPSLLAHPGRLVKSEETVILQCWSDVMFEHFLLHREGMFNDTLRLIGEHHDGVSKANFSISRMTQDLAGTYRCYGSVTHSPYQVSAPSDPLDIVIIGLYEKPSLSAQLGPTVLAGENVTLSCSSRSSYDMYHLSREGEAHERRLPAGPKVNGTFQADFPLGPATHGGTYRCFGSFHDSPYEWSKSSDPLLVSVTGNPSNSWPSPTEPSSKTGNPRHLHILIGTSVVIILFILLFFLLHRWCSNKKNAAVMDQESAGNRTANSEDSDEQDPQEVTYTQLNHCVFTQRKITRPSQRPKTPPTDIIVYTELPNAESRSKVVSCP

Row | Binder | binding result
9 | B1 | no binding (tested: supernatant 1:5, 1:25, 1:250)
10 | B2 | no binding (tested: supernatant 1:5, 1:25, 1:250)

biological target: T6, KIR2DS3 (UniProt Q14952 22-304, limits assumed); experiment: HEK293 cell microarray
T6 construct: whole, on cells
Method: as §1
as §1, with “In Table 4, replicate” for “Replicate”, “the” for “a complete”, “panel (as in FIG. 1A, FIG. 2B, and FIG. 2C)” for “panel”

T6 sequence (Q14952 22-304 limits assumed): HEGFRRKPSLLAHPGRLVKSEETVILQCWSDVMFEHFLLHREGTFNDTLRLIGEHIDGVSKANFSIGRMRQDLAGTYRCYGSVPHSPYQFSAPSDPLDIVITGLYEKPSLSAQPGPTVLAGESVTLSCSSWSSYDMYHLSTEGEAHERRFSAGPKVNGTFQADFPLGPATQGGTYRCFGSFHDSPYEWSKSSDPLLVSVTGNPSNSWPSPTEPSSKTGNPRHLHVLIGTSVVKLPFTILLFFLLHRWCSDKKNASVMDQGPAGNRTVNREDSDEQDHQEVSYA

Row | Binder | binding result
11 | B1 | no binding (tested: supernatant 1:5, 1:25, 1:250)
12 | B2 | no binding (tested: supernatant 1:5, 1:25, 1:250)

biological target: T7, KIR3DL2 (UniProt P43630 22-455, limits assumed); experiment: HEK293 cell microarray
T7 construct: whole, on cells
Method: as §1
as §1, with “In Table 4, replicate” for “Replicate”, “the” for “a complete”, “panel (as in FIG. 1A, FIG. 2B, and FIG. 2C)” for “panel”

T7 sequence (P43630 22-455 limits assumed): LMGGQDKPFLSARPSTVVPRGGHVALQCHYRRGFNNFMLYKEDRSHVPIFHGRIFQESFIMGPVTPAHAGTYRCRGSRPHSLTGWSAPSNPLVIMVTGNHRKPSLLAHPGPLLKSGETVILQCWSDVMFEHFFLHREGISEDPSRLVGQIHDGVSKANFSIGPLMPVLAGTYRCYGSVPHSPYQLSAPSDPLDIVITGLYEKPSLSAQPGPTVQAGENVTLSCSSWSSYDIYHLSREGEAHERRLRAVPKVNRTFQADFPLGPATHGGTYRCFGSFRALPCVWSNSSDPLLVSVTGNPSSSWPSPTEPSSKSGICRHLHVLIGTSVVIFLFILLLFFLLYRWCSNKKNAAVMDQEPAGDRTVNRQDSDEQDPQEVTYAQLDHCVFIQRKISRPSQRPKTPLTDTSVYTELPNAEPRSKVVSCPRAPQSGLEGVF

Row | Binder | binding result
13 | B1 | no binding (tested: supernatant 1:5, 1:25, 1:250)
14 | B2 | no binding (tested: supernatant 1:5, 1:25, 1:250)

biological target: T8, KIR2DS5 (UniProt Q14953 22-304, limits assumed); experiment: HEK293 cell microarray
T8 construct: whole, on cells
Method: as §1
as §1, with “In Table 4, replicate” for “Replicate”, “the” for “a complete”, “panel (as in FIG. 1A, FIG. 2B, and FIG. 2C)” for “panel”

T8 sequence (Q14953 22-304 limits assumed): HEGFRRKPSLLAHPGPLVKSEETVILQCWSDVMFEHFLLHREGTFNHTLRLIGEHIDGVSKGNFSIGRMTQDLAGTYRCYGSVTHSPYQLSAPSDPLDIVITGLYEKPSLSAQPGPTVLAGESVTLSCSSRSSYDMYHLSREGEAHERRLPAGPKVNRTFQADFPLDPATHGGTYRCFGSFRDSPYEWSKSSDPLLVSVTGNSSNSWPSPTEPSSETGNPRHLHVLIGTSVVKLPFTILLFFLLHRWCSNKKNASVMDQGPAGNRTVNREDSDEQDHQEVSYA

Row | Binder | binding result
15 | B1 | no binding (tested: supernatant 1:5, 1:25, 1:250)
16 | B2 | no binding (tested: supernatant 1:5, 1:25, 1:250)

biological target: T9, KIR2DL4 (UniProt Q99706 22-377, limits assumed); experiment: HEK293 cell microarray
T9 construct: whole, on cells
Method: as §1
as §1, with “In Table 4, replicate” for “Replicate”, “the” for “a complete”, “panel (as in FIG. 1A, FIG. 2B, and FIG. 2C)” for “panel”

T9 sequence (Q99706 22-377 limits assumed): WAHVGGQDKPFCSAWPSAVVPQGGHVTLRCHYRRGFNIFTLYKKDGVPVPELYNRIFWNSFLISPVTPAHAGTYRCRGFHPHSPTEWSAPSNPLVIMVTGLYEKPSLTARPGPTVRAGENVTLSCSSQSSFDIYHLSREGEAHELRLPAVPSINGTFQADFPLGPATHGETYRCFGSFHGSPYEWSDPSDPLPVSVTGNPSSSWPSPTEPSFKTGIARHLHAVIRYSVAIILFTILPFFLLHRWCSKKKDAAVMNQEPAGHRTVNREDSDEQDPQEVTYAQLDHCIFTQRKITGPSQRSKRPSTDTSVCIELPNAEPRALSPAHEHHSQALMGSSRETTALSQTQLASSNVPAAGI

Row | Binder | binding result
17 | B1 | no binding (tested: supernatant 1:5, 1:25, 1:250)
18 | B2 | no binding (tested: supernatant 1:5, 1:25, 1:250)

biological target: T10, KIR3DL1 (UniProt P43629 22-444, limits assumed); experiment: HEK293 cell microarray
T10 construct: whole, on cells
Method: as §1
as §1, with “In Table 4, replicate” for “Replicate”, “the” for “a complete”, “panel (as in FIG. 1A, FIG. 2B, and FIG. 2C)” for “panel”

T10 sequence (P43629 22-444 limits assumed): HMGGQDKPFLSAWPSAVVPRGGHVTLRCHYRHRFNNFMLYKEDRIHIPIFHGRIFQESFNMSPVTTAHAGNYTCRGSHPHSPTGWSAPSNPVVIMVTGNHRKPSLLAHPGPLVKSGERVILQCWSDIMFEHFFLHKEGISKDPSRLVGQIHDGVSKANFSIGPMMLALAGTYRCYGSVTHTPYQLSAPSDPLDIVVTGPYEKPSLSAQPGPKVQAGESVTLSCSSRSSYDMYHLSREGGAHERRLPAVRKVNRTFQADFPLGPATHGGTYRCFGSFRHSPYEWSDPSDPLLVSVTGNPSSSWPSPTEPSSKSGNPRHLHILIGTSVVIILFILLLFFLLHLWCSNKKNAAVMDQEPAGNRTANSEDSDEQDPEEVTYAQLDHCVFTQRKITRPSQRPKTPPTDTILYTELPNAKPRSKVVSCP

Row | Binder | binding result
19 | B1 | no binding (tested: supernatant 1:5, 1:25, 1:250)
20 | B2 | no binding (tested: supernatant 1:5, 1:25, 1:250)

biological target: T11, KIR2DL3 (UniProt P43628 22-341, limits assumed); experiment: HEK293 cell microarray
T11 construct: whole, on cells
Method: as §1
as §1, with “In Table 4, replicate” for “Replicate”, “the” for “a complete”, “panel (as in FIG. 1A, FIG. 2B, and FIG. 2C)” for “panel”

T11 sequence (P43628 22-341 limits assumed): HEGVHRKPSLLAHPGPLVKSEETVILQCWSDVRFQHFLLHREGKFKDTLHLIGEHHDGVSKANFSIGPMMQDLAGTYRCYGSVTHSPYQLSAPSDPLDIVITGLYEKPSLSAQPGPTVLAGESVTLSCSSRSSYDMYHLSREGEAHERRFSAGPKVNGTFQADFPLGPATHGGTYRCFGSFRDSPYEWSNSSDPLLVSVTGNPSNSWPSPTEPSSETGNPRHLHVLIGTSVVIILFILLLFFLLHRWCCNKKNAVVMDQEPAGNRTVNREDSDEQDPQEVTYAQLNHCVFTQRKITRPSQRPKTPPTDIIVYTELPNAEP

Row | Binder | binding result
21 | B1 | no binding (tested: supernatant 1:5, 1:25, 1:250)
22 | B2 | no binding (tested: supernatant 1:5, 1:25, 1:250)

biological target: T12, KIR2DL2 (UniProt P43627 22-348, limits assumed); experiment: HEK293 cell microarray
T12 construct: whole, on cells
Method: as §1
as §1, with “In Table 4, replicate” for “Replicate”, “the” for “a complete”, “panel (as in FIG. 1A, FIG. 2B, and FIG. 2C)” for “panel”

T12 sequence (P43627 22-348 limits assumed): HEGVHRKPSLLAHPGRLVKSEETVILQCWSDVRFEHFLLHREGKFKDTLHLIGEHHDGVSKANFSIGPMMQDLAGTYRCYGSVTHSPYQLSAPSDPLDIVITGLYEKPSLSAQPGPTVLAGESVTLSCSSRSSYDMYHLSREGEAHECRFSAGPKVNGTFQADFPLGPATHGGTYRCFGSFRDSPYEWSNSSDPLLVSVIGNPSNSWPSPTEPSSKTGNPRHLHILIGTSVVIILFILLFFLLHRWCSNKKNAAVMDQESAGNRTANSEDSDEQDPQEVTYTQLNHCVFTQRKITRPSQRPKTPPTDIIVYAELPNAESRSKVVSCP

Row | Binder | binding result
23 | B1 | no binding (tested: supernatant 1:5, 1:25, 1:250)
24 | B2 | no binding (tested: supernatant 1:5, 1:25, 1:250)

biological target: T13, KIR2DL5B (UniProt Q8NHK3 22-375, limits assumed); experiment: HEK293 cell microarray
T13 construct: whole, on cells
Method: as §1
as §1, with “In Table 4, replicate” for “Replicate”, “the” for “a complete”, “panel (as in FIG. 1A, FIG. 2B, and FIG. 2C)” for “panel”

T13 sequence (Q8NHK3 22-375 limits assumed): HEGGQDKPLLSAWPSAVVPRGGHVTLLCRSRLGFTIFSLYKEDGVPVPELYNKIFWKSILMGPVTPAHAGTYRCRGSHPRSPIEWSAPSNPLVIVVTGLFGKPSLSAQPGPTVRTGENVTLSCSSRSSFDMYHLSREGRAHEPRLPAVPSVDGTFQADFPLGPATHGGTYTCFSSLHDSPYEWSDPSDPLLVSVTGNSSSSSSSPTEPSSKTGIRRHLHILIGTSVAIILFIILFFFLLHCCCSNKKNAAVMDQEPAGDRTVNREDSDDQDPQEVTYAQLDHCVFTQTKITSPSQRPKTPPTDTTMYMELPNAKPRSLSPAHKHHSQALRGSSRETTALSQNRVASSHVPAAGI

Row | Binder | binding result
25 | B1 | no binding (tested: supernatant 1:5, 1:25, 1:250)
26 | B2 | no binding (tested: supernatant 1:5, 1:25, 1:250)

biological target: T1, Human KIR3DL3; experiment: flow cytometry, KIR3DL3-transfected 300.19 cells

Row | Kd | Binder
27 | 0.46 mg/L | B1
28 | 0.42 mg/L | B2

biological target: T1, Human KIR3DL3; experiment: flow cytometry; blockade of HHLA2-mIgG2a binding to KIR3DL3-transfected 300.19 cells
Method: The indicated concentrations of KIR3DL3 mAbs were pre-incubated with KIR3DL3 transfected 300.19 cells for 30 minutes at 4° C. […] EC50 and IC50 analysis were conducted using GraphPad Prism®.

Row | IC50 | Binder
29 | 0.21 mg/L | B1
30 | 0.19 mg/L | B2
